Results published in patent US20110117113A1, “IMMUNOGLOBULIN SINGLE VARIABLE DOMAIN DIRECTED AGAINST HUMAN CXCR4 AND OTHER CELL ASSOCIATED PROTEINS AND METHODS TO GENERATE THEM” (priority 2009, published 2011).
Changes are numbered by the printed parent chain.

Experiments:
[1] = molecular target: all CXCR4 library clones containing a mutation at F189; assay: immunofluorescence, average over all clones with a mutation at F189
[2] = molecular target: T1, CXCR4 mutation library clone 914 (N192K) (human, UniProt P61073 1-352); assay: immunofluorescence, high stringency, average for residue N192 (one clone)
[3] = molecular target: all CXCR4 library clones containing a mutation at E277; assay: immunofluorescence, high stringency, average over all clones with a mutation at E277
[4] = molecular target: CXCR4 mutation library clone 2396 (S178C) (human, UniProt P61073 1-352); assay: immunofluorescence on HEK-293T expressing the clone, normalised to wild type
[5] = molecular target: T2, CXCR4 mutation library clone 709 (P163L, S178I) (human, UniProt P61073 1-352); assay: as above
T2 chain: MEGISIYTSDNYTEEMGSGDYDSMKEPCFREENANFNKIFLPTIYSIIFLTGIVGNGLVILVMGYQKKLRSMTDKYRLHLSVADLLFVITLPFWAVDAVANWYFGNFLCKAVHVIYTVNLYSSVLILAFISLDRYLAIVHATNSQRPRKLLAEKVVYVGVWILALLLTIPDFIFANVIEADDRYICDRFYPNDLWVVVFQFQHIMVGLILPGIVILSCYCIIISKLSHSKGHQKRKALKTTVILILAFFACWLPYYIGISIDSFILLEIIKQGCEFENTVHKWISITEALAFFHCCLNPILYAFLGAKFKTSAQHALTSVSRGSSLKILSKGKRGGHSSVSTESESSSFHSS

[6] = molecular target: T3, CXCR4 mutation library clone 1057 (K230E, S178R) (human, UniProt P61073 1-352); assay: as above
T3 chain: T2 chain with L163P, I178R, K230E

[7] = molecular target: T4, CXCR4 mutation library clone 414 (C218R, E179V, S351T) (human, UniProt P61073 1-352); assay: as above
T4 chain: T2 chain with L163P, I178S, E179V, C218R, S351T

[8] = molecular target: T5, CXCR4 mutation library clone 2834 (E179V, G258E) (human, UniProt P61073 1-352); assay: as above
T5 chain: T2 chain with L163P, I178S, E179V, G258E

[9] = molecular target: T1, CXCR4 mutation library clone 914 (N192K); assay: as above

B1: Nanobody 238D2 (VHH)
VHH: EVQLVESGGGLVQTGGSLRLSCAASGFTFSSYAMSWVRQAPGKGLEWVSGIKSSGDSTRYAGSVKGRFTISRDNAKNMLYLQMYSLKPEDTAVYYCAKSRVSRTGLYTYDNRGQGTQVTVSS
An average nanobody reactivity [1] of -0.9%, an average nanobody reactivity [2] of 8.3% and an average nanobody reactivity [3] of 27.5% were found for B1 in this work. The “% immunofluorescence” value [4] was 44.9%, the “% immunofluorescence” value [5] was 64.1% and the “% immunofluorescence” value [6] was 54.6%. The “% immunofluorescence” value [7] was 71.1%, the “% immunofluorescence” value [8] was 84.6% and the % immunofluorescence [9] was 8.3%.
